# Experimental data reported in PMC4666614, “Identification of New Regions in HIV-1 gp120 Variable 2 and 3 Loops that Bind to α4β7 Integrin Receptor” (PLoS ONE, 2015).
# B1: Ovalbumin: nonspecific protein control (protein)
# chain: MGSIGAASMEFCFDVFKELKVHHANENIFYCPIAIMSALAMVYLGAKDSTRTQINKVVRFDKLPGFGDSIEAQCGTSVNVHSSLRDILNQITKPNDVYSFSLASRLYAEERYPILPEYLQCVKELYRGGLEPINFQTAADQARELINSWVESQTNGIIRNVLQPSSVDSQTAMVLVNAIVFKGLWEKAFKDEDTQAMPFRVTEQESKPVQMMYQIGLFRVASMASEKMKILELPFASGTMSMLVLLPDEVSGLEQLESIINFEKLTEWTSSNVMEERKIKVYLPRMKMEEKYNLTSVLMAMGITDVFSSSANLSGISSAESLKISQAVHAAHAEINEAGREVVGSAEAGVDAASVSEEFRADHPFLFCIKHIATNAVLFFGRCVSP
# Tested on: α4β7 integrin binding to MAdCAM-1
# Assay: Competitive inhibition of binding of α4β7 on RPMI8866 cells to MAdCAM-1 by peptides, viruses, IMCs and controls
# Format: cell-based, human
# Details: for % Inhibition ± SD of α4β7 integrin binding to MAdCAM-1: average of 3–7 experiments in triplicate
# Protocol: 96-well plates were coated with MAdCAM-1 as described above. RPMI8866 cells (2 X 10^6/ ml) were incubated with cyclic V2 or V3 MN, TH023, or acute subtype C (C-6980v0c22) peptides or with scrambled flanking region (SFL) or the mid region (SMR) TH023 V2 or with a completely scrambled (SCR) TH023 peptide (10 μg/ml) for 45 minutes at 37°C before being added in triplicate to the MAdCAM-1 coated plates for 1 hour at 37°C. In concurrent experiments, RMI8866 cells were incubated with purified primary HIV-1 (0.75 ng to 6 ng/well p24) subtype B (SF162, US-1, JRFL), subtype CRF01_AE viruses (92TH023), IMCs (0.75 ng to 1000 ng/well p24 in each case) containing acute or chronic envelopes (Acute CRF01_AE (703357) [GenBank:JN944658], C (C-6980v0c22) [GenBank:HM215344], A(851891); Chronic CRF01_AE (CM235.2) [AF259954.1], C (ET02220LucR) [U46016]) or with pSG3Δenv. pSG3Δenv contained a four-nucleotide insertion mutation (CTAG) in Env, leading to a translation stop codon after amino acid residue 142. The pSG3Δenv clone is routinely used for generating Env pseudotyped infectious virions.
# Viruses were tested in triplicate in two independent experiments. In additional experiments, mannose, HIV-1 p24, and ovalbumin (0.2–10 μg/ml) were used in the competition assay as nonspecific protein controls (data in Table 2; 3–7 experiments performed in triplicate), whereas, an anti-RSV mAb, Synagis® was used as a nonspecific antibody control. Synagis® was incubated for 45 minutes with either MAdCAM-1 or with RPMI8866 cells and then placed in the assay system. The remainder of the assay was similar to that described above. Significance was determined by paired Student’s t test.
molecule,measurement,setting,value
B1,% Inhibition ± SD of α4β7 integrin binding to MAdCAM-1,0.2 μg/ml,7.2 ± 12.5%
same,% Inhibition ± SD of α4β7 integrin binding to MAdCAM-1,1.0 μg/ml,2.0 ± 3.5%
same,% Inhibition ± SD of α4β7 integrin binding to MAdCAM-1,5 μg/ml,13.6 ± 11.8%
same,% Inhibition of α4β7 integrin binding to MAdCAM-1,"10 μg/ml, average of triplicate determinations from a single experiment",18%
same,Inhibition of α4β7 integrin binding to MAdCAM-1 by nonspecific controls (in words),0.2–10 μg/ml,no significant inhibition
